Earlier results in PMC10461426.
pKd: −log10 of the molar value. Like-named read-outs stand apart in the source and are kept apart here. Values belong to the substance of their own block, whether it stands above or below them.

How the values were obtained:
IL-1R1 (Homo sapiens) [1] = target: IL-1R1 (Homo sapiens) (UniProt P14778)
IL-1R1 (Homo sapiens) [2] = target: IL-1R1 (Homo sapiens) (UniProt P14778); remark: listed apart in the source
IL-1R1 (Homo sapiens) [3] = target: IL-1R1 (Homo sapiens) (UniProt P14778); remark: listed apart in the source

pKd (IL-1R1 (Homo sapiens) [1]): 7.03
Substance: IL-38 (from UniProt Q8WWZ1)

pKd (IL-1R1 (Homo sapiens) [2]): 7.68
Substance: IL-1beta (from UniProt P01584)

pKd (IL-1R1 (Homo sapiens) [3]): 7.42
Substance: IL-1Ra (from UniProt P18510)
